Assay results reported in patent US20200199241A1 (Chugai, published 2020).
Substitutions are numbered along the chain they refer to. Names and notes keep the numbering of the source.

B1: IgG1-F318 (antibody)
heavy: QVQLQESGPGLVKPSETLSLTCAVSGHSISHDHAWSWVRQPPGEGLEWIGFISYSGITNYNPSLQGRVTISRDNSKNTLYLQMNSLRAEDTAVYYCARSLARTTAMDYWGEGTLVTVSSASTKGPSVFPLAPSSKSTSGGTAALGCLVKDYFPEPVTVSWNSGALTSGVHTFPAVLQSSGLYSLSSVVTVPSSSLGTQTYICNVNHKPSNTKVDKKVEPKSCDKTHTCPPCPAPELLGGPKVFLFPPKPKDTLYISRTPEVTCVVVDVSHEDPEVKFNWYVDGVEVHNAKTKPREEQYNSTYRVVSVLTPLHQDWLNGKEYKCKVSNKALPAPIEKTISKAKGQPREPQVYTLPPSRDELTKNQVSLTCLVKGFYPSDIAVEWESNGQPENNYKTTPPVLDSDGSFFLYSKLTVDKSRWQQGNVFSCSVIHEALHYHYTQKSLSLSP
light: not shown
notes: EU numbering; copies: 2 + 2
B2: IgG1-F369 (antibody)
heavy: B1 heavy with K241S, P259V, T309Q, P310V
light: not shown
notes: EU numbering; copies: 2 + 2
B3: IgG1-F374 (antibody)
heavy: B1 heavy with Y254W, T258E, I430Y
light: not shown
notes: EU numbering; copies: 2 + 2
B4: IgG1-F320 (antibody)
heavy: B1 heavy with N327G, E384A
light: not shown
notes: EU numbering; copies: 2 + 2
B5: IgG1-F390 (antibody)
heavy: B1 heavy with K241S, Y254W, L311D, I430Y
light: not shown
notes: EU numbering; copies: 2 + 2
B6: IgG1-F401 (antibody)
heavy: B1 heavy with D272F, N288E, P389E
light: not shown
notes: EU numbering; 'N431Y' as printed, probably N434Y; copies: 2 + 2
B7: IgG1-F376 (antibody)
heavy: B1 heavy with T258E, D272F, N288E, I430M
light: not shown
notes: EU numbering; copies: 2 + 2
B8: IgG1-F331 (antibody)
heavy: B1 heavy with D272F, P389E, I430M
light: not shown
notes: EU numbering; copies: 2 + 2
B9: IgG1-F334 (antibody)
heavy: B1 heavy with D272F, N327G
light: not shown
notes: EU numbering; copies: 2 + 2
B10: IgG1-F396 (antibody)
heavy: B1 heavy with D272F, N288E, T309Q, P310V, Q313A
light: not shown
notes: EU numbering; copies: 2 + 2
B11: IgG1-F388 (antibody)
heavy: B1 heavy with K241S, L311A, I430M
light: not shown
notes: EU numbering; copies: 2 + 2
B12: IgG1-F325 (antibody)
heavy: B1 heavy with D272F, T309Q, Q313A, I430M
light: not shown
notes: EU numbering; copies: 2 + 2
B13: IgG1-F344 (antibody)
heavy: B1 heavy with I430L
light: not shown
notes: EU numbering; copies: 2 + 2
B14: IgG1-F367 (antibody)
heavy: B1 heavy with E260H, D272F, T309Q, Q313A, I430M
light: not shown
notes: EU numbering; copies: 2 + 2
B15: IgG1-F338 (antibody)
heavy: B1 heavy with D272F, N288E
light: not shown
notes: EU numbering; copies: 2 + 2
B16: IgG1-F335 (antibody)
heavy: B1 heavy with T258E, D272F
light: not shown
notes: EU numbering; copies: 2 + 2
B17: IgG1-F363 (antibody)
heavy: B1 heavy with K241S, Y254M, P259V, T309Q, P310V, Q313A, I430L
light: not shown
notes: EU numbering; copies: 2 + 2
B18: IgG1-F352 (antibody)
heavy: B1 heavy with P310V, L311P, I430L
light: not shown
notes: EU numbering; copies: 2 + 2
B19: IgG1-F350 (antibody)
heavy: B1 heavy with L311R, I430L
light: not shown
notes: EU numbering; copies: 2 + 2
B20: IgG1-F359 (antibody)
heavy: B1 heavy with K241S, Y254M, P259V, T309Q, P310V
light: not shown
notes: EU numbering; copies: 2 + 2
B21: IgG1-F377 (antibody)
heavy: B1 heavy with Y254W, T309P, P310V, I430Y
light: not shown
notes: EU numbering; copies: 2 + 2
B22: IgG1-F324 (antibody)
heavy: B1 heavy with D272F, T309Q, I430M
light: not shown
notes: EU numbering; copies: 2 + 2
B23: IgG1-F389 (antibody)
heavy: B1 heavy with K241S, Y254W, L311E, I430Y
light: not shown
notes: EU numbering; copies: 2 + 2
B24: IgG1-F391 (antibody)
heavy: B1 heavy with K241S, Y254W, L311A, I430Y
light: not shown
notes: EU numbering; copies: 2 + 2
B25: IgG1-F386 (antibody)
heavy: B1 heavy with K241S, L311E, I430M
light: not shown
notes: EU numbering; copies: 2 + 2
B26: IgG1-F349 (antibody)
heavy: B1 heavy with L311P, I430L
light: not shown
notes: EU numbering; copies: 2 + 2
B27: IgG1-F360 (antibody)
heavy: B1 heavy with K241S, Y254M, P259V, T309Q, P310V, I430V
light: not shown
notes: EU numbering; copies: 2 + 2
B28: IgG1-F364 (antibody)
heavy: B1 heavy with K241S, Y254M, P259V, T309Q, P310V, Q313A, N327G, I430L
light: not shown
notes: EU numbering; copies: 2 + 2
B29: IgG1-F397 (antibody)
heavy: B1 heavy with D272F, T309Q, P310V, Q313A, P389E
light: not shown
notes: EU numbering; 'T370Q' as printed, probably T307Q; copies: 2 + 2
B30: IgG1-F328 (antibody)
heavy: B1 heavy with D272F
light: not shown
notes: EU numbering; copies: 2 + 2
B31: IgG1-F380 (antibody)
heavy: B1 heavy with Y254W, T258E, N288E, I430Y
light: not shown
notes: EU numbering; copies: 2 + 2
B32: IgG1-F372 (antibody)
heavy: B1 heavy with Y254W, I430Y
light: not shown
notes: EU numbering; copies: 2 + 2
B33: IgG1-F399 (antibody)
heavy: B1 heavy with D272F, N288E, T309Q
light: not shown
notes: EU numbering; copies: 2 + 2
B34: IgG1-F336 (antibody)
heavy: B1 heavy with D272F, T309Q, Q313A
light: not shown
notes: EU numbering; copies: 2 + 2
B35: IgG1-F337 (antibody)
heavy: B1 heavy with D272F, T309Q, P310V, Q313A
light: not shown
notes: EU numbering; copies: 2 + 2
B36: IgG1-F339 (antibody)
heavy: B1 heavy with D272F, L311E
light: not shown
notes: EU numbering; copies: 2 + 2
B37: IgG1-F323 (antibody)
heavy: B1 heavy with T258E, D272F, I430M
light: not shown
notes: EU numbering; copies: 2 + 2
B38: IgG1-F358 (antibody)
heavy: B1 heavy with T309Q, P310V, I430M
light: not shown
notes: EU numbering; copies: 2 + 2
B39: IgG1-F368 (antibody)
heavy: B1 heavy with D272F, N327G, E384A
light: not shown
notes: EU numbering; copies: 2 + 2
B40: IgG1-F400 (antibody)
heavy: B1 heavy with D272F, N288E, Q313A
light: not shown
notes: EU numbering; copies: 2 + 2
B41: IgG1-F330 (antibody)
heavy: B1 heavy with D272F, L311E, I430M
light: not shown
notes: EU numbering; copies: 2 + 2
B42: IgG1-F362 (antibody)
heavy: B1 heavy with K241S, Y254M, P259V, T309Q, P310V, N327G, I430L
light: not shown
notes: EU numbering; copies: 2 + 2
B43: IgG1-F395 (antibody)
heavy: B1 heavy with T258E, I430M
light: not shown
notes: EU numbering; copies: 2 + 2
B44: IgG1-F333 (antibody)
heavy: B1 heavy with D272F, T309Q, P310V, L311E, Q313A, I430M
light: not shown
notes: EU numbering; copies: 2 + 2
B45: IgG1-F365 (antibody)
heavy: B1 heavy with K241S, Y254M, P259V, V307A, T309Q, P310V, I430L
light: not shown
notes: EU numbering; copies: 2 + 2
B46: IgG1-F354 (antibody)
heavy: B1 heavy with T309Q, I430L
light: not shown
notes: EU numbering; copies: 2 + 2
B47: IgG1-F379 (antibody)
heavy: B1 heavy with Y254W, T258E, Q313A, I430Y
light: not shown
notes: EU numbering; copies: 2 + 2
B48: IgG1-F387 (antibody)
heavy: B1 heavy with K241S, L311D, I430M
light: not shown
notes: EU numbering; copies: 2 + 2
B49: IgG1-F381 (antibody)
heavy: B1 heavy with K241S, Y254M, P259V, T309A, P310V, Q313A, I430L
light: not shown
notes: EU numbering; copies: 2 + 2
B50: IgG1-F326 (antibody)
heavy: B1 heavy with D272F, T309Q, P310V, Q313A, I430M
light: not shown
notes: EU numbering; copies: 2 + 2
B51: IgG1-F373 (antibody)
heavy: B1 heavy with Y254W, Q313A, I430Y
light: not shown
notes: EU numbering; copies: 2 + 2
B52: IgG1-F343 (antibody)
heavy: B1 heavy with D272F, I430L
light: not shown
notes: EU numbering; copies: 2 + 2
B53: IgG1-F353 (antibody)
heavy: B1 heavy with P310V, L311R, I430L
light: not shown
notes: EU numbering; copies: 2 + 2
B54: IgG1-F375 (antibody)
heavy: B1 heavy with Y254W, N288E, I430Y
light: not shown
notes: EU numbering; copies: 2 + 2
B55: IgG1-F394 (antibody)
heavy: B1 heavy with T309Q, P310V, Q313A
light: not shown
notes: EU numbering; copies: 2 + 2
B56: IgG1-F402 (antibody)
heavy: B1 heavy with K241S, Y254M, P259V, T309Q, P310V, I430L, Y436W
light: not shown
notes: EU numbering; copies: 2 + 2
B57: IgG1-F392 (antibody)
heavy: B1 heavy with N288E
light: not shown
notes: EU numbering; copies: 2 + 2
B58: IgG1-F356 (antibody)
heavy: B1 heavy with D272F, L311E, P389E, I430M
light: not shown
notes: EU numbering; 'Y308P' as printed, probably V308P; copies: 2 + 2
B59: IgG1-F322 (antibody)
heavy: B1 heavy with D272F, T309P, I430M
light: not shown
notes: EU numbering; copies: 2 + 2
B60: IgG1-F321 (antibody)
heavy: B1 heavy with D272F, N327G, I430M
light: not shown
notes: EU numbering; copies: 2 + 2

Target: T1, human FcRn (soluble human FcRn complexed with β2-microglobulin) (human, UniProt P61769 21-119, limits assumed)
T1 construct: also called hFcRn
Experiment: SPR, pH 7.0;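 further: antibodies captured on a Protein L sensor chip with human FcRn injected as analyte, KD calculated from fitted association and dissociation rate constants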

T1 sequence (chain, as listed by the source limits assumed, chain 1 of 2): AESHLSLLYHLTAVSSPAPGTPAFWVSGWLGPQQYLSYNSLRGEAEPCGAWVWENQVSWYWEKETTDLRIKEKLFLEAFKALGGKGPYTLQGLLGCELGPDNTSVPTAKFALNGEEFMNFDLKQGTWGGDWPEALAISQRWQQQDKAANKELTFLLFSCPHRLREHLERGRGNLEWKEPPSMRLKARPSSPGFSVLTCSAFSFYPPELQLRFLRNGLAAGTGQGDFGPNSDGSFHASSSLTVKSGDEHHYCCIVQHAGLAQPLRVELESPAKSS
T1 sequence (P61769 21-119 limits assumed, chain 2 of 2): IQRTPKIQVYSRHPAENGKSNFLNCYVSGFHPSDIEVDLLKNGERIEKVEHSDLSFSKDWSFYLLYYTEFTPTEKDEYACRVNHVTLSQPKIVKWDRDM

Binder | Kd
B1 | 18 nM
B2 | 75 nM
B3 | 12 nM
B4 | 20 nM
B5 | 68 nM
B6 | 6.9 nM
B7 | 9.6 nM
B8 | 30 nM
B9 | 19 nM
B10 | 20 nM
B11 | 70 nM
B12 | 21 nM
B13 | 30 nM
B14 | 15 nM
B15 | 7.7 nM
B16 | 15 nM
B17 | 41 nM
B18 | 600 nM
B19 | 170 nM
B20 | 420 nM

Binder | Kd
B21 | 130 nM
B22 | 28 nM
B23 | 17 nM
B24 | 36 nM
B25 | 32 nM
B26 | 150 nM
B27 | 1300 nM
B28 | 35 nM
B29 | 45 nM
B30 | 19 nM
B31 | 5.6 nM
B32 | 13 nM
B33 | 6.5 nM
B34 | 14 nM
B35 | 56 nM
B36 | 19 nM
B37 | 27 nM
B38 | 100 nM
B39 | 20 nM
B40 | 6.1 nM

Binder | Kd
B41 | 36 nM
B42 | 54 nM
B43 | 24 nM
B44 | 74 nM
B45 | 51 nM
B46 | 28 nM
B47 | 9 nM
B48 | 150 nM
B49 | 110 nM
B50 | 75 nM
B51 | 11 nM
B52 | 32 nM
B53 | 1100 nM
B54 | 5.5 nM
B55 | 53 nM
B56 | 23 nM
B57 | 6.9 nM
B58 | 34 nM
B59 | 92 nM
B60 | 32 nM
